This is an account of results in US20100135904A1 (RESEARCH DEVELOPMENT FOUNDATION, published 2010).

First the molecules themselves.
B3: endogenous human GRP78 (glucose regulated protein 78) at the cell surface (receptor)
chain: not shown
notes: whole, on cells; Endogenous protein; surface pool labelled with cell-impermeable biotin in the co-immunoprecipitations; also called BiP; cell surface GRP78

In experiment [1] the target is B3. The experiment can be described thus: anti-HA immunoprecipitation from surface-biotinylated 293T cells, avidin-HRP and anti-GRP78 blots. As to the method: (§1) Cell lysates and immunoprecipitations. Cell lysates were prepared in RIPA buffer as previously described (Gray et al., 2006). For immunoprecipitation experiments, 1-5 mg protein extract was pre-cleared by protein G-PLUS-Agarose beads for 2 hours at 4° C. The pre-cleared extracts were incubated as indicated with 40 μl anti-FLAG M2 gel beads or 20 μl G-PLUS-Agarose pre-incubated with 15 μl anti-GRP78 (KDEL), 10 μl anti-HA, or 25 μl anti-His for 2 hours at 4° C. Immunoprecipitates were subsequently washed 4 times with RIPA buffer and 2 times with 54K buffer (50 mM tris pH 7.9, 150 mM NaCl, 0.5% Triton X-100). The proteins were then eluted either by heating the beads at 95° C. in sample buffer or by the addition of 50 μl of Flag peptide (1 μg/μl) followed by removal of any remaining associated proteins by heating in sample buffer. Western blotting
(§2) The finding that GRP78 inhibits TGF-β signaling raised the possibility that it does so by binding directly to type I and/or type II TGF-β signaling receptors. […] Here the inventors have further tested whether GRP78 similarly co-immunoprecipitates with TBβRI and TBβRII. […] Each of these proteins was immunoprecipitated as bait and then immune complexes were assessed for the presence of GRP78. […] However, only Cripto pulled down endogenous GRP78 as detected both by avidin-HRP and anti-GRP78 antibody (FIG. 5).

The target of experiment [2] is T1, human GRP78 with a hemagglutinin (HA) epitope at its C terminus (human, UniProt P11021 19-654).
T1 construct: also called GRP78-HA; WT GRP78-HA
Briefly: cell-free pull-down of biotinylated GRP78-HA on Cripto mutant beads. From the text:
To further characterize the ability of Cripto to bind cell surface GRP78, the inventors tested whether GRP78 from one population of cells could bind mature Cripto isolated from a separate cell population in a cell free system. […] The beads were then washed again and bound proteins were eluted with Flag peptide and subjected to Western blotting using avidin-HRP, anti-GRP78 or anti-Cripto antibodies. […] Moreover, biotinylated (i.e. cell surface-labeled) GRP78 was specifically eluted from beads previously exposed to Cripto-Flag lysates but not from beads exposed to vector lysates.
In order to explore the interaction between Cripto and GRP78 further, the inventors used the method described above (FIG. 2B) to test whether cell surface labeled GRP78 binds Cripto mutants lacking either the EGF-like domain (AEGF) or CFC domain (ACFC). In this experiment, the inventors assessed the ability of biotinylated, HA-tagged GRP78 from one cell population to bind wild type and mutant forms of Cripto originating from separate cell populations.

Experiment [3] deals with T2, TGF-β type II receptor, His-tagged (TβRII-His) (UniProt P37173 23-166, limits assumed).
T2 construct: whole, on cells; Gift construct; also called TBβRII-His; TBβRII; not shown: His tag
Briefly: anti-His immunoprecipitation from surface-biotinylated 293T cells, avidin-HRP and anti-GRP78 blots. As to the method:
as §1, §2

T1 sequence (P11021 19-654 limits assumed): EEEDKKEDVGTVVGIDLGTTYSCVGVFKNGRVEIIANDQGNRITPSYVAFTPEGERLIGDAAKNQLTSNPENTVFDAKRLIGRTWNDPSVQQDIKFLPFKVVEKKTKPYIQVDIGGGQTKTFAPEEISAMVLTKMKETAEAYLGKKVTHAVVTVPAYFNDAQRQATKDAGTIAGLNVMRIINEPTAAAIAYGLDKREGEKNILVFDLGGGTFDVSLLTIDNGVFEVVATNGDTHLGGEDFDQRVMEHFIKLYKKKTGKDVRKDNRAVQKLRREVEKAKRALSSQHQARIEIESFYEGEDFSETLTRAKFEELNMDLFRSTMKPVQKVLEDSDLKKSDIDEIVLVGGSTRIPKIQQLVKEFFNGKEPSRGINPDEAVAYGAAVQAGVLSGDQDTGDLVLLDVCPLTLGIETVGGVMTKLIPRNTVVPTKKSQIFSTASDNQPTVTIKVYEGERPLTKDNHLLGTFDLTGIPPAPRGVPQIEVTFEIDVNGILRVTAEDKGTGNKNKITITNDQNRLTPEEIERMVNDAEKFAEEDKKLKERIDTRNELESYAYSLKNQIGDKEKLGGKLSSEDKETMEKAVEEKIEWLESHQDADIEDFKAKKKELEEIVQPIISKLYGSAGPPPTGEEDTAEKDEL
T2 sequence (P37173 23-166 limits assumed): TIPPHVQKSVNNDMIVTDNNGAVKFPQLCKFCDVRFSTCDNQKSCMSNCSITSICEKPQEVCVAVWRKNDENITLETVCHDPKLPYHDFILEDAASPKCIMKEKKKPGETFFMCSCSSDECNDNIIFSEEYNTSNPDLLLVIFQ

B1: TGF-β type I receptor, HA-tagged (TβRI-HA) (receptor, UniProt P36897 34-503, looked up, not shown: small tags and cut ends)
chain: LQCFCHLCTKDNFTCVTDGLCFVSVTETTDKVIHNSMCIAEIDLIPRDRPFVCAPSSKTGSVTTTYCCNQDHCNKIELPTTVKSSPGLGPVELAAVIAGPVCFVCISLMLMVYICHNRTVIHHRVPNEEDPSLDRPFISEGTTLKDLIYDMTTSGSGSGLPLLVQRTIARTIVLQESIGKGRFGEVWRGKWRGEEVAVKIFSSREERSWFREAEIYQTVMLRHENILGFIAADNKDNGTWTQLWLVSDYHEHGSLFDYLNRYTVTVEGMIKLALSTASGLAHLHMEIVGTQGKPAIAHRDLKSKNILVKKNGTCCIADLGLAVRHDSATDTIDIAPNHRVGTKRYMAPEVLDDSINMKHFESFKRADIYAMGLVFWEIARRCSIGGIHEDYQLPYYDLVPSDPSVEEMRKVVCEQKLRPNIPNRWQSCEALRVMAKIMRECWYANGAARLTALRIKKTLSQLSQQEGIKM
notes: whole, on cells; Gift construct; also called TBβRI-HA; TBβRI
B1: the binding result in experiment [1] is given as “no binding”.

B2: Cripto mutant lacking the CFC domain (ΔCFC), Flag-tagged (ligand, not shown: small tags and cut ends)
chain: not shown
notes: also called Cripto ACFC mutant; ACFC
For the molecule B2, the binding result in experiment [2] is recorded as “no binding”.

B3: the binding result in experiment [3] is recorded as “no binding”.
